Entries after “also recorded” stand apart in the source; their conditions may differ. Each block holds one molecule with its values, some of them ahead of it. The star is where a group is joined. Biotin = O=C1N[C@H]2[C@H](CS[C@H]2CCCCC(=O)*)N1
Columns and labels:
[1] = Circular dichroism (CD) of peptides; assay type: physicochemical; settings: 20 mM Sodium Cacodylate; for Ellipticity ratio (222 nm/208 nm) / Ellipticity 208 nm / Ellipticity 222 nm: 1.25 mg/mL; for Ellipticity 208 nm / Ellipticity 222 nm: CD data given as [θ]M×10^−3; for wavelength Minimum of CD profile: 5.0 mg/mL
[2] = tested on: extracellular matrix (ECM) components: Collagen type I, II, III and IV, elastin, hyaluronic acid and Geltrex; assay: ECM specificity binding test, whole panel; settings: 5.0 mg/ml peptide, FIG. 4
collagen type I = molecular target: T1, collagen type I (Rattus norvegicus, UniProt P02454+P02466); assay: ECM specificity binding test, collagen type I coating; settings: 5.0 mg/ml peptide, FIG. 4
T1 construct: purchased Sigma-Aldrich
T1 sequence (P02454 152-1207 limits assumed): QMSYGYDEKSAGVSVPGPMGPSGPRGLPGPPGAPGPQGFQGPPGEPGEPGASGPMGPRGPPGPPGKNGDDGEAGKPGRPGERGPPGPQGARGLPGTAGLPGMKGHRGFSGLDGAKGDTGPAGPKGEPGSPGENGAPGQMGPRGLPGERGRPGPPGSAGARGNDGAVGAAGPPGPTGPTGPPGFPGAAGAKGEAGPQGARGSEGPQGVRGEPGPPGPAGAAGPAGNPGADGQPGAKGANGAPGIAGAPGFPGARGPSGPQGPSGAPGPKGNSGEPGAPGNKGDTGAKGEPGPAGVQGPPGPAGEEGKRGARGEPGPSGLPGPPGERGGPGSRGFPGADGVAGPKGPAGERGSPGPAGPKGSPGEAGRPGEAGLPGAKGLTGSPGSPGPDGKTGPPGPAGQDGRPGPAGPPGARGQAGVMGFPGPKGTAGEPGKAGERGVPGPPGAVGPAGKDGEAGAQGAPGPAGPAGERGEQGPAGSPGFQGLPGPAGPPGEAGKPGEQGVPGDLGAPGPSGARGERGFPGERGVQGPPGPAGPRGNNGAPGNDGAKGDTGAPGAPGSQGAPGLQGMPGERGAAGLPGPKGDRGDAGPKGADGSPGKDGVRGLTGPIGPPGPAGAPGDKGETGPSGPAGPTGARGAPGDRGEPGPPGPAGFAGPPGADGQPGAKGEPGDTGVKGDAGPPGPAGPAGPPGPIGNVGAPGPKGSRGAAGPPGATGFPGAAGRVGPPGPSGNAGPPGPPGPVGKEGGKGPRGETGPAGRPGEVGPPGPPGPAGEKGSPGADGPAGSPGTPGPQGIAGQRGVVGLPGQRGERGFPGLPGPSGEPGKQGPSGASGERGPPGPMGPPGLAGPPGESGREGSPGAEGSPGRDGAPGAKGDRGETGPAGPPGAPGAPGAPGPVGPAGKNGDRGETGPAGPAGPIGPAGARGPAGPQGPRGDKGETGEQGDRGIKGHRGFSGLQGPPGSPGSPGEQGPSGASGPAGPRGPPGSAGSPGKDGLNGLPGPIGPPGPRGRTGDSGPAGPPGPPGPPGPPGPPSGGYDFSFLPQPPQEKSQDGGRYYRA
T1 sequence (P02466 86-1125 limits assumed): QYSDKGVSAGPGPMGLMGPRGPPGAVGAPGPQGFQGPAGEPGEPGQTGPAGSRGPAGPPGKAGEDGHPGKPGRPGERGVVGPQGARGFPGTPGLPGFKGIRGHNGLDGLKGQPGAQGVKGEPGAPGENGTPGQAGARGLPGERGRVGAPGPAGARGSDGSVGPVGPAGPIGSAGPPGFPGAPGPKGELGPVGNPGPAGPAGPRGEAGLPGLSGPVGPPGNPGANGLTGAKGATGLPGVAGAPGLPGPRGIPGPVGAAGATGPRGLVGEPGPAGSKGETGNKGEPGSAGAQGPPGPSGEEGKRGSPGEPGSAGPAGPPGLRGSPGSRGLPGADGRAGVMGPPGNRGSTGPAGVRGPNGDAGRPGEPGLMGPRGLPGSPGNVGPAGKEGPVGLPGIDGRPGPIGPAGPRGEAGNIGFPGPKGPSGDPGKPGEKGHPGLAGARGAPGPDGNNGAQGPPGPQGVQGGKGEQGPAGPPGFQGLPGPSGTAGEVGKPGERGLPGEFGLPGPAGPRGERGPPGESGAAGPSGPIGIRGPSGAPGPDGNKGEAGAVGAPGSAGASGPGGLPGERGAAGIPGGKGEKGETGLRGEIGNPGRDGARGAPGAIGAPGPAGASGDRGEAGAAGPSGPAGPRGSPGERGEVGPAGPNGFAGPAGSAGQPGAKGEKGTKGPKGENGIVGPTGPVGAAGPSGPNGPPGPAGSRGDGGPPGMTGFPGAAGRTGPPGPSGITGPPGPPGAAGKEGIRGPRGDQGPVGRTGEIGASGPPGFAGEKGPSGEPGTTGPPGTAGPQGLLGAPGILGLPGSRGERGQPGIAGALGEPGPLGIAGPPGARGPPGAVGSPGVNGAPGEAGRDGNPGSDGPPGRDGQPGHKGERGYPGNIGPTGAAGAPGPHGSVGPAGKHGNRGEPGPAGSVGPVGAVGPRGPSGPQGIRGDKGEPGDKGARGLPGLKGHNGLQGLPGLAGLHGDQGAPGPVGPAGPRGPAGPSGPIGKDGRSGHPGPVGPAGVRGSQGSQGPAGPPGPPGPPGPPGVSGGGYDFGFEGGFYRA
Procedure: (§1) Peptides were incubated 24 hours at 37° C. on collagens I-IV, elastin, hyaluronic acid, and Geltrex. Coatings (10 pig/cm^2) were previously dried overnight in milli-Q water. Overall significance was assessed using analysis of variance, with Tukey's multiple comparison post-hoc analysis between ECM groups where n=4.
(§2) Biotinylated peptides were custom synthesized by ABI Scientific, Inc. (Sterling, VA). Uranyl acetate and TEM grids were from Ted Pella, Inc (Redding, CA). Unless specified otherwise, all water used in these experiments was Milli-Q grade. HA (˜1 MDa), collagen types I (rat), II (chicken), III (human), and IV (mouse), elastin (bovine), deuterium oxide (D2O), acetic acid-d4, sodium acetate-d3, 3-(Trimethylsilyl)propionic-2,2,3,3-d6 (DSS-D6) acid sodium salt, and 2,2,2-trifluoroethanol (TFE) and were obtained from Sigma-Aldrich (St. Louis, MO). Streptavidin (Alexa Fluor 488 conjugate) and Geltrex were obtained from Thermo Fisher Scientific Inc. (Waltham, MA). […]
(§3) Hyaluronic acid, collagens I, II, III, and IV, elastin, and Geltrex were coated onto 96-well black plates (medium binding affinity) at 10 μg/cm^2 and were dried in milli-Q water at room temperature. […] The plates were read with a fluorescence microplate reader for fluorescence intensity (Ex 490 nm, Em 525 nm). All data were normalized to the background fluorescence intensity of Streptavidin-488.

collagen type IV = molecular target: T2, collagen type IV (Mus musculus, UniProt P02463+P08122); assay: ECM specificity binding test, collagen type IV coating; settings: 5.0 mg/ml peptide, FIG. 4
T2 construct: purchased Sigma-Aldrich
Procedure: as §1, §2, §3

elastin = molecular target: T3, elastin (Bos taurus, UniProt P04985); assay: ECM specificity binding test, elastin coating; design: species or system bovine; settings: 5.0 mg/ml peptide, FIG. 4
T3 construct: purchased Sigma-Aldrich
T3 sequence (P04985 27-747): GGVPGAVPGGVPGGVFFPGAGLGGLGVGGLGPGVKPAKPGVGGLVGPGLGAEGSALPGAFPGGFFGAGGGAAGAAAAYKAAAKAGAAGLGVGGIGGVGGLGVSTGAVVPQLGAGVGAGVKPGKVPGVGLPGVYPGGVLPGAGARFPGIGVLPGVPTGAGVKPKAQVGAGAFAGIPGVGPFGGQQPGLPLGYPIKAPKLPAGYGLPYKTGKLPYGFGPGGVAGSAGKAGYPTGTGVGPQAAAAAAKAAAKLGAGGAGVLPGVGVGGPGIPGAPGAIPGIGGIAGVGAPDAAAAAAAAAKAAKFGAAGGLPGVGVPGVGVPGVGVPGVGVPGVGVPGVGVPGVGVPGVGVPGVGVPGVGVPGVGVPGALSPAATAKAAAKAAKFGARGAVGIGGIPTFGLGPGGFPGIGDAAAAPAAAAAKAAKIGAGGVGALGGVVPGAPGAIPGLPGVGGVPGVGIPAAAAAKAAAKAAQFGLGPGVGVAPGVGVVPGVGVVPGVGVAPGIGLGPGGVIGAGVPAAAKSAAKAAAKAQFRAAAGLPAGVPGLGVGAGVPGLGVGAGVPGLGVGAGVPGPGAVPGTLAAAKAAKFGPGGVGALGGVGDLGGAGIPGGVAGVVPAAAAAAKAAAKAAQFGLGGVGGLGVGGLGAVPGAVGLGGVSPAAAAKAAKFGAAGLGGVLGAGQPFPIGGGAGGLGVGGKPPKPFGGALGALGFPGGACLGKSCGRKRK
Procedure: as §1
Biotinylated peptides were custom synthesized by ABI Scientific, Inc. (Sterling, VA). Uranyl acetate and TEM grids were from Ted Pella, Inc (Redding, CA). Unless specified otherwise, all water used in these experiments was Milli-Q grade. HA (˜1 MDa), collagen types I (rat), II (chicken), III (human), and IV (mouse), elastin (bovine), deuterium oxide (D2O), acetic acid-d4, sodium acetate-d3, 3-(Trimethylsilyl)propionic-2,2,3,3-d6 (DSS-D6) acid sodium salt, and 2,2,2-trifluoroethanol (TFE) and were obtained from Sigma-Aldrich (St. Louis, MO). Streptavidin (Alexa Fluor 488 conjugate) and Geltrex were obtained from Thermo Fisher Scientific Inc. (Waltham, MA). Sodium hyaluronate (5 and 60 KDa) was purchased from Lifecore Biomedical LLC (Chaska, MN). In reference to terminology, N and C termini is used to describe the amino terminal (N) and the carboxyl terminal (C) of the peptide. The biotinylated peptides are used in every experiment.
(§4) Hyaluronic acid, collagens I, II, III, and IV, elastin, and Geltrex were coated onto 96-well black plates (medium binding affinity) at 10 μg/cm^2 and were dried in milli-Q water at room temperature. N-termini biotinylated peptides were added to coated plates at 0, 1, 2.5, 5 and 10 mg/ml overnight at 37° C. in phosphate buffered saline (PBS), pH 7.4, after which the plates were washed three times with PBS. Fluorescent streptavidin-488 (4 μg/mL) was added to each well and incubated at 37° C. temperature for 24 hours, then thoroughly washed with PBS. The plates were read with a fluorescence microplate reader for fluorescence intensity (Ex 490 nm, Em 525 nm). All data were normalized to the background fluorescence intensity of Streptavidin-488.

[3] = Transmission electron microscopy (TEM) of peptide nanostructures; assay type: physicochemical; settings: for TEM characterization, Phosphate Buffered Saline (i): PBS pH 7.4, 0.5% w/v, 30 minutes sonication, 24 hrs at 37° C.
Procedure: The sample and stain were filter-dried in between steps. Samples were collected 24 hours at 37° C. after 30 minutes of sonication. All TEM was performed on a Philips FEI Technai Spirit G2 electron microscope. Peptides were incubated in both PBS and SC.

collagen type III = molecular target: T4, collagen type III (Homo sapiens, UniProt P02461); assay: ECM specificity binding test, collagen type III coating; settings: 5.0 mg/ml peptide, FIG. 4
T4 construct: purchased Sigma-Aldrich
T4 sequence (P02461 154-1221 limits assumed): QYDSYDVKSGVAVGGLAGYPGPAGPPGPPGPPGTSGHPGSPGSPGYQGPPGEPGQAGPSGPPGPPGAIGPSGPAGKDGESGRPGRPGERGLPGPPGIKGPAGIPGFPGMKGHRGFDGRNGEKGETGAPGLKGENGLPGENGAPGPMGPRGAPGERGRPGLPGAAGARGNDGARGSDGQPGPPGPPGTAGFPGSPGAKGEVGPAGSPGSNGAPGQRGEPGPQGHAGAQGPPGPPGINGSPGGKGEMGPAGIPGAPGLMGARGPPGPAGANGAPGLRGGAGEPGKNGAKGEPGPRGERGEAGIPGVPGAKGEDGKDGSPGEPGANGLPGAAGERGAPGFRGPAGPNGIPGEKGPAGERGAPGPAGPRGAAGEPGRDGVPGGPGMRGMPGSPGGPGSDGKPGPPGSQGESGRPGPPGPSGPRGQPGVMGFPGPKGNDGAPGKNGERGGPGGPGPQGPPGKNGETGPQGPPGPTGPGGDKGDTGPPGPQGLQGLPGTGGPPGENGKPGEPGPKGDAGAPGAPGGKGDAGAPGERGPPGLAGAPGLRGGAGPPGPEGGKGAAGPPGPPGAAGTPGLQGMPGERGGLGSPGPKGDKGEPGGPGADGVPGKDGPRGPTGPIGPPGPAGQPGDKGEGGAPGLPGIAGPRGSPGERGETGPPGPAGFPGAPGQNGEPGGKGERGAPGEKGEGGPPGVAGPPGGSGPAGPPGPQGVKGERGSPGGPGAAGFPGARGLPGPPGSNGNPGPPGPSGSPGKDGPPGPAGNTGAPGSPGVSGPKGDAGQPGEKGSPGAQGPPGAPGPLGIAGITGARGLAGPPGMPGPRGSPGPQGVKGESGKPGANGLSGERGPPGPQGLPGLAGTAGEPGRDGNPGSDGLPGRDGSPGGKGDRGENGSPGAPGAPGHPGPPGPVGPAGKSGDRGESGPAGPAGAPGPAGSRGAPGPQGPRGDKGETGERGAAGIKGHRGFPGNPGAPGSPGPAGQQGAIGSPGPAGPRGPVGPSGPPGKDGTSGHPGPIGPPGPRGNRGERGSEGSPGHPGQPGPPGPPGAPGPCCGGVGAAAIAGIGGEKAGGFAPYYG
Procedure: as §1, §2, §3

collagen type II = molecular target: T5, collagen type II (Gallus gallus, UniProt P02460); assay: ECM specificity binding test, collagen type II coating; design: species or system chicken; settings: 5.0 mg/ml peptide, FIG. 4
T5 construct: purchased Sigma-Aldrich
T5 sequence (P02460 whole entry): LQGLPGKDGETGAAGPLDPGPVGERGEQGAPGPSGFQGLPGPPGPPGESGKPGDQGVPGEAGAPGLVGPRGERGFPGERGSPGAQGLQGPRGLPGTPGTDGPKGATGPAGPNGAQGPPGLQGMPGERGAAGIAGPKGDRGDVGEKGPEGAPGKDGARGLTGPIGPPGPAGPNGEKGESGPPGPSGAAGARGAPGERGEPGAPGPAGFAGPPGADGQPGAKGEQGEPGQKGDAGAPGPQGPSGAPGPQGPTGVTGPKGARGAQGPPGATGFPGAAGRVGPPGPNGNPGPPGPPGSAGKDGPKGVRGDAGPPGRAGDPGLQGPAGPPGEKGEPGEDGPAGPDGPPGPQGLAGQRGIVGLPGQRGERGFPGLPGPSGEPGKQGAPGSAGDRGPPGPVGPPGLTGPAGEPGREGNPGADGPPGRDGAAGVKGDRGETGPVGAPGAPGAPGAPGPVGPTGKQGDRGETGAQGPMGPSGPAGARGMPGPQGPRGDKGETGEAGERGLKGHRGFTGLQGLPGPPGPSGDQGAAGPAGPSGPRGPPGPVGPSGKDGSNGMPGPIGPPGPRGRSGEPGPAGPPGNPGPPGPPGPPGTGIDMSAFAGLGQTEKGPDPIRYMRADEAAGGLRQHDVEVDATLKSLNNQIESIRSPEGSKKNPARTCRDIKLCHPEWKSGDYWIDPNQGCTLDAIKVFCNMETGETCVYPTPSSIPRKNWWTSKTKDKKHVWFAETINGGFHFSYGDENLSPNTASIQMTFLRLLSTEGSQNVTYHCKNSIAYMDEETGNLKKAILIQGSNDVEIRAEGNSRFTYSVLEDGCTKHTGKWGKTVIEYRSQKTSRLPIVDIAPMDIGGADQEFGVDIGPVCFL
Procedure: as §1, §2, §3

[4] = Concentration-dependent peptide binding to hyaluronic acid coating (biotin-streptavidin fluorescence)
Summary of the method: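 N-terminally biotinylated peptides at 0, 1, 2.5, 5 and 10 mg/ml were incubated overnight at 37 °C in PBS, pH 7.4, on dried hyaluronic acid coatings (10 μg/cm^2), then washed three times in PBS. Groups compared with scrambled control by ANOVA with Tukey post-hoc, n=4.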

Geltrex = assay: ECM specificity binding test, Geltrex coating; settings: 5.0 mg/ml peptide, FIG. 4
Procedure: as §1, §2, §3

[5] = ECM specificity binding test, hyaluronic acid coating; settings: 5.0 mg/ml peptide, FIG. 4
Procedure: as §1, §4

elastin (bovine) = molecular target: T6, elastin (bovine) (bovine, UniProt P04985 27-747, limits assumed); assay: plate assay: biotinylated peptide (5.0 mg/ml) on dried ECM coating, streptavidin-488 fluorescence
T6 construct: Coated and dried on plates at 10 ug/cm2
T6 sequence (looked up): T3 sequence (P04985 27-747)
Procedure: as §1, with “pig/cm²)” for “pig/cm^2)”
as §4, with “N-termini” for “Hyaluronic acid, collagens I, II, III, and IV, elastin, and Geltrex were coated onto 96-well black plates (medium binding affinity) at 10 μg/cm^2 and were dried in milli-Q water at room temperature. N-termini”

[6] = molecular target: T7, collagen type III (human) (human, UniProt P02461 154-1221); assay: as above
T7 construct: III (human)'; Coated and dried on plates at 10 ug/cm2; also called collagen III
T7 sequence (looked up): T4 sequence (P02461 154-1221 limits assumed)
Procedure: as §1, with “pig/cm²)” for “pig/cm^2)”
as §4, with “N-termini” for “Hyaluronic acid, collagens I, II, III, and IV, elastin, and Geltrex were coated onto 96-well black plates (medium binding affinity) at 10 μg/cm^2 and were dried in milli-Q water at room temperature. N-termini”

Molecule: KTKATVKIKNKQKSVNALKQKIVLLSK [Peptide 7c, 17x-3 variant]
Ellipticity ratio (222 nm/208 nm) [1]: 0.46
Ellipticity 208 nm [1]: −131
Ellipticity 222 nm [1]: −60.9
wavelength Minimum of CD profile [1]: 225 nm
Ellipticity ratio (222 nm/208 nm) ([1]; 20% TFE): 0.89
Ellipticity 208 nm ([1]; 20% TFE): −290
Ellipticity 222 nm ([1]; 20% TFE): −259
wavelength Minimum of CD profile ([1]; 20% TFE): 224 nm
binding to the ECMs (for 17x-3: the ECMs other than hyaluronic acid) [2]: moderate binding
binding to collagen type I (collagen type I): predominantly
binding to collagen type IV (collagen type IV): predominantly
binding to elastin (elastin): predominantly

B1: Peptide 10K (peptide)
peptide: Biotin-TKAKIKHSVKLKAKLRIKLVKRI-OH
SMILES: CC[C@H](C)[C@H](NC(=O)[C@H](CCCNC(=N)N)NC(=O)[C@H](CCCCN)NC(=O)[C@@H](NC(=O)[C@H](CC(C)C)NC(=O)[C@H](CCCCN)NC(=O)[C@@H](NC(=O)[C@H](CCCNC(=N)N)NC(=O)[C@H](CC(C)C)NC(=O)[C@H](CCCCN)NC(=O)[C@H](C)NC(=O)[C@H](CCCCN)NC(=O)[C@H](CC(C)C)NC(=O)[C@H](CCCCN)NC(=O)[C@@H](NC(=O)[C@H](CO)NC(=O)[C@H](Cc1c[nH]cn1)NC(=O)[C@H](CCCCN)NC(=O)[C@@H](NC(=O)[C@H](CCCCN)NC(=O)[C@H](C)NC(=O)[C@H](CCCCN)NC(=O)[C@@H](NC(=O)CCCC[C@@H]1SC[C@@H]2NC(=O)N[C@@H]21)[C@@H](C)O)[C@@H](C)CC)C(C)C)[C@@H](C)CC)C(C)C)C(=O)O
notes: 23-residue designed peptide; biotinylated synthetic peptide
binding result (elastin (bovine)): binds
binding result [6]: binds

The next lines start with results.

binding to the ECMs (for 17x-3: the ECMs other than hyaluronic acid) [2]: moderate binding
binding to collagen type I (collagen type I): predominantly
binding to collagen type III (collagen type III): predominantly
binding to elastin (elastin): predominantly
binding to collagen type II (collagen type II): predominantly
Molecule: TKAKIKHSVKLKAKLRIKLVKRI [Peptide 10K, five B(X7)B domains in 23 residues]
Ellipticity ratio (222 nm/208 nm) [1]: 0.67
Ellipticity 208 nm [1]: −113
Ellipticity 222 nm [1]: −75.3
wavelength Minimum of CD profile [1]: 224 nm
Ellipticity ratio (222 nm/208 nm) ([1]; 20% TFE): 0.83
Ellipticity 208 nm ([1]; 20% TFE): −235
Ellipticity 222 nm ([1]; 20% TFE): −194
wavelength Minimum of CD profile ([1]; 20% TFE): 223 nm
TEM characterization, Phosphate Buffered Saline (i) [3]: No structure

binding to hyaluronic acid with increasing concentrations of peptide (fluorescence intensity) ([4]; 0-10 mg/ml peptide, PBS pH 7.4, 37° C., HA coating 10 μg/cm^2, FIG. 3): increases dramatically
specificity of binding to ECMs [2]: lowest specificity
binding to collagen type IV (collagen type IV): moderately
binding to Geltrex (Geltrex): moderately
binding to elastin (elastin): moderately
binding to hyaluronic acid in specificity testing [5]: binds
binding to collagen type II (collagen type II): moderately
Molecule: TNLRNKYTFLARARANLAVRNKQNIKS [BHP4, variant of BHP3]
Ellipticity ratio (222 nm/208 nm) [1]: 0.81
Ellipticity 208 nm [1]: −107
Ellipticity 222 nm [1]: −86.6
wavelength Minimum of CD profile [1]: 226 nm
wavelength Minimum of CD profile ([1]; 20% TFE): 225 nm
HA binding, overall assessment ([4]; summary and discussion statements): comparable binding; also recorded: HA specific and robust binders
TEM characterization, Phosphate Buffered Saline (i) [3]: form fibers with many striations that form larger fibers and the larger fibers tend to form a mesh network
nanofiber formation in TEM, overall ([3]; both PBS and sodium cacodylate): consistent nanofibers; also recorded: predominantly form fibers with striations and furthermore form a mesh network
